Measured values published in a protein production outcome set (Wang et al. 2014).

assay: label from the status in PepcDB records
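Note: failed if final PepcDB status was selected cloned or expressed and not failed if soluble or beyond.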

Question: With “AIAVSPLKTRCCSPSSQQQASEAREIEQPSTVWELDFYSRPVYGKDNKRIWELIVVDESFLLCHVESVPNDMINSAELRKRVERLLEQVTVKPKVVKFSRMPMFNMISLALKDLGFEVKPSRRTYRLYHVLRDREANIYSKMPGYRSENTLSTSYLYSTERLPDALRGEKFAFCTADYSFLYELQSSDTIPYCDIFNTGDSILLEKELPGIIVYSERADSLASWTAGAEVSFIKFREEELELVLECGINSHYRLAKIAEDHRLVEEAKTFEQMKWHMKGFHFYAIQSLKETSGTSHIKGLWLLNDFMEQ” as the sequence, how does the protein production read?
Answer: not failed

Question: Which protein production does the source give for “AITLTCDEIEQAFLHDHIFNYYQPQFDFRSGAMVGVEALVRYEHPTHGMLSPAVFLPLIEQCGLHEKLFLTVLEKSVSALASIGADLQLSVNISQRNLQHSICDPILAICERYGFPASKLTLEMTEHEVYNGTPTSLANLARLRMYGVGLSIDDFGTGYASLGQLAQLPFTELKIDRSFVHDLATNYKHQQLTNMCLLLAQSLGLHCVVEGVENEETWQYLRQLGVDTCQGYYAAKP” here?
Answer: failed

Question: For “ALIAGHFADPFSVLGMHRTDAGLEVRALLPDATDVWVIEPKTGRKVGKLECLDSRGFFSGVLPRRKNAFRYQLAVTWHGQQNLIDDPYRFGPLLQ”, which protein production is on record?
Answer: failed

Question: Which protein production does the source give for “ALKLMQYIGDAIGTIRDPQELFRTVTDKLRLLFAFDSAVIITIDRERREASVFFEMLRFELPEQLRHQTRSIAGTWLEGHLDDRTVTVASIARDIPSFGADGAPLLWTLHELGMRQIVLSPLRSGGRVIGFLSFVSAEEKLWSDGDKSLLSGVSSSIAIAVSNALAYEELRQRE” here?
Answer: not failed

Question: With “ALQDRTQFSDRDLATLKKYWDNGMTSLGSVCREKIEAVATELNVDCEIVRTWIGNRRRKYRLMGIEV” as the sequence, how does the protein production read?
Answer: not failed

Question: Which protein production does the source give for “ALYNVDAGHRAVIFDRFRGVQDIVVGEGTHFLIPWVQKPIIFDCRSRPRNVPVITGSKDLQNVNITLRILFRPVASQLPRIFTSI” here?
Answer: failed

Question: For “ANTSGKDGTTVVIGESKSDHVIHLYEDPRCPGCAAMEQSIGETVNKGMEDGDYKLSFTVGTFLDGNLGGEGSKNALSALGAALNVSPEAFVDYKTALYSTKYHPEESTDEFAKDDYLIKVADSVDALKGNKKFQDAVEKGTYDAWAMRMSKSFDKAEGVESTPTIKINDKVVETPSTPDAWQKALKDAGVTK”, which protein production is on record?
Answer: failed

Question: Which protein production does the source give for “APAEPAAPKSGEAETPPKHPGVLKVEAILEKVQGLEQAVDSFEGKKTDKKYLMIEEYLTKELLALDSVDPEGRADVRQARRDGVRKVQTILEKLEQKA” here?
Answer: not failed

Question: For “APEWTEEDLSQLTRSMVKFPGGTPGRWEKIAHELGRSVTDVTTKAKQLKDSVTCSPGMV”, which protein production is on record?
Answer: not failed

Question: With “APKTFMFGVSKVEEPKTVSFGTGIKETTATSSTEATAPTPAAAAPAPVQFVFKAPTTATTASSLTTTISTTSNAPALGGFSFGAPSSSSTVSSSTTSTSANPAAVKPMFSWSGAGSAVSSTSSSQQPVAKAPTLGFGVSSSTVTTTTTSTKVFAFTPASGLDPAAATSAPAAGAGFSFGSQSKPATTQNTGTFFFGQPTAVAPATPTNPSVSSIFGAPATSTTASTSVSATTSTSTANAIASSFAPTSTPQLFGNWGEKKTDLTTFGASSGSGTTTTPSFGWSSNGDAAKSNSAAVGSAAVPSSSASTMATPIFGSSSMFGPSSSSNNTTSTSTTSLPFGSAATTAATTPAGGNAALTGLFGNVGNSLAGVGAPVATTPAATAAAPLTNIFGNPTPVAAAAPVFGSGSTIPSAGFGAPAAAAPLAAPALPGAFN” as the sequence, how does the protein production read?
Answer: failed

Question: For “APLPVIFIPGIMGTNLRNKADKSEVWRPPNGLWPMDDLFASIGALWTWAWRGPKARQELLKAEQVEVDDQGTIDVGQSGLSEEAARLRGWGKVMRSAYNPVMGLMERRLDNIVSRRELQAWWNDEALSPPGDQGEEQGKVGPIDEEELLRASRYQFDVWCAGYNWLQSNRQSALDVRDYIENTVLPFYQKECGLDPEQMRRMK”, which protein production is on record?
Answer: failed

Question: With “APRSVAMVVPQGSDIRQLSDLRGKRIALNKGSNVHWLLLQILEDAGLGLNDVRVVYTPPKYPLTASDYLAVDAWMMWDPLLSDAEHTGELRVVASGEGRVNNHQFYLSRRDYLAQHGDIMRRLLTELTHTGQFIDSHRGEAARLLSAELGI” as the sequence, how does the protein production read?
Answer: failed

Question: Which protein production does the source give for “AQAALEASEEKFAKAFHSSPDSITITEIESGRYVEVNDGFCRLTGFSAREVLGRTAHEIGIWTDTVQREFMIDELRQKGRMHHREMNGRDKKGAPLVLDVSVEFITLNNTACLLMNARDIG” here?
Answer: failed

Question: With “AQELAHKINHIVASRPATAAMLQEIAHLVGTATNVDCCCLVTVTNEESTETTTANWCSDEFLGVPLSNEMFSTERFLMELPVLQCAVEPRNIDEISIIRNSLVVGCQHLPLPIKAVLAISTRFGGKTNGVISLIKFQSHDWDDSAKNILKTIEASCAIAFSQLTQAQLISSQQQHLQ” as the sequence, how does the protein production read?
Answer: failed

Question: For “AQIPQQIKGVICINAGGGIYLKEAFEQFRVAGQRFLQVRPRWLSQVPLIDLLFTRASVSRPLDRQWARQRVIDFVVADPEAALGALLDSTTEDEVNRLPKLVSQLKQPVYFLAGTDDKVMEPKYVRHLASFHPLFQYCGDNVIEIPDCGHLAMLEQPDAVASHIKSLV”, which protein production is on record?
Answer: failed

Question: With “ARDPAKLKQVAGQPRLREAVIRLMRGTDVIRVKMYALNGITLFSTDASQIGEDESDDDGFRSAAAGTPASELAHNHSIDAFERTLTDRDIISTYVPVHDPAGKIEGVLEIYLDATPFVADSDQQ” as the sequence, how does the protein production read?
Answer: failed

Question: For “ARFMAVSSELKDDTRTYTVAGQVFFASSDRFMSHFDFREAVERVVIDVTHAHFWDITSVSALDRVVIKFRREGTEVEIKGMNDATRTLVDRFGVHDKPEEVEKLMGGH”, which protein production is on record?
Answer: not failed

Question: Which protein production does the source give for “ARFYSDGLKLAGTLFVPDDYEPGQKRPAVLICHGRFAIKEWVPSRWTPHFLAAGYVCMVFDYRNLGESEGTPGRIIPDEEVRDARHALTYLQCQPEVDPARIGALGWGLGGGVAVSAAAHDARIKAVVCAIGVANGGRYGRVGMSDAAWAARQEQIAADRRERVLTGRSARLPRTEILGRPDAQRAERHERQNWIDSLVAAVGPERAADPAKLGIPDEITLESMEALYDFAPDAVVDRIAPRPLLIVHARDDHEFPFEHAADMYERAAQPKQLIAVEDAGHLDWIDPAHPSQQVYVPQVVAWMQAQL” here?
Answer: not failed

Question: For “ARPCIPKSFGYSSVVCVCNATYCDSFDPPTFPALGTFSRYESTRSGRRMELSMGPIQANHTGTGLLLTLQPEQKFQKVKGFGGAMTDAAALNILALSPPAQNLLLKSYFSEEGIGYNIIRVPMASCDFSIRTYTYADTPDDFQLHNFSLPEEDTKLKIPLIHRALQLAQRPVSLLASPWTSPTWLKTNGAVNGKGSLKGQPGDIYHQTWARYFVKFLDAYAEHKLQFWAVTAENEPSAGLLSGYPFQCLGFTPEHQRDFIARDLGPTLANSTHHNVRLLMLDDQRLLLPHWAKVVLTDPEAAKYVHGIAVHWYLDFLAPAKATLGETHRLFPNTMLFASEACVGSKFWEQSVRLGSWDRGMQYSHSIITNLLYHVVGWTDWNLALNPEGGPNWVRNFVDSPIIVDITKDTFYKQPMFYHLGHFSKFIPEGSQRVGLVASQKNDLDAVALMHPDGSAVVVVLNRSSKDVPLTIKDPAVGFLETISPGYSIHTYLWHRQ”, which protein production is on record?
Answer: not failed

Question: For “ASDFQTGIHKIVIQQSGDTDSFEVSVSIGGADKGGPAKLYNDKGEYIGDSYSAQIRTATMSCCTNGNAFFMTCAGSVSSISEAGKRLHITVIGYIDDKEVNRLEKEYITDGNTLIETFSVSTKEI”, which protein production is on record?
Answer: not failed

Question: For “ASDSAFTYNGVSITRPTNEVNDVISGVNITLEQTTEPNKPAIISVSRDNQAIIDSLTEFVKAYNELIPKLDEDTRYDADTKIAGIFNGVGDIRAIRSSLNNVFSYSVHTDNGVESLMKYGLSLDDKGVMSLDEAKLSSALNSNPKATQDFFYGSDSKDMGGREIHQEGIFSKFNQVIANLIDGGNAKLKIYEDSLDRDAKSLTKDKENAQELLKTRYNIMADVLPLMIAKSLKPIKNSIPCK”, which protein production is on record?
Answer: failed

Question: Which protein production does the source give for “ASKAFYSAGDKLFQPGDDAVASMQTYSVAQFLQPFTLNPAKASSDYLGKWVKVRGVIVDIRRKSGIAGSYYFIVTMRDEQNKTDKRLTFNFGSHNSADVEALSNGSVATIVGQVHQVQDSTIPTLQNPKVVK” here?
Answer: not failed

Question: Which protein production does the source give for “ATHIIFTTHENSDGDGLGSQVALALALKALGKEVAIFNPTEVPPNYLFLKELHEINLFRDRDEESMQEFFLADLLVVLDANLHDRIGRLWPHVEFARQMSRLKVLCIDHHLEPEDFADITVCETYASSTGELVCDLVTALELRTGQQLFTPEVASALYAAIMTDTGSFRFPKTTPYTYRLAGMLVEKGADPELVYDRIYNAL” here?
Answer: failed

Question: Which protein production does the source give for “AVGKNKGLSKGGKKGGKKKVVDPFSRKDWYDVKAPNMFQTRQIGKTLVNRTQGQRIASDYLKGRVFEVSLADLQKDIDPERSFRKFRLIAEDVQDRNVLCNFHGMDLTTDKYRSMVKKWQTLIEAIVEAKTVDGYLLRVFCIGFTAKDQQSQRKTCYAQQSQVRKIRARMTDIITNEVSGADLKQLVNKLALDSIAKDIEKSCQRIYPLHDVYIRKVKVLKKPRFDVSKLLELHGDGGGKSVEAVVSSEGAVIDRPEGYEPPVQESV” here?
Answer: failed

Question: Which protein production does the source give for “AVSFTGVSGVKNIVAVTACPTGVAHTFMSAEAIEAYAKKQGWNVKVETRGQVGAGNEITVEEVAAADLVFVAADIDVPLDKFKGKPMYRTSTGLALKKTEQEFDKAFKEAKIF” here?
Answer: failed

Question: Which protein production does the source give for “CPLLLRVFTTNNGRHHRMDEFSRGNVPSSELQIYTWMDATLKELTSLVKEVYPEARKKGTHFNFAIVFTDVKRPGYRVKEIGSTMSGRKGTDDSMTLQSQKFQIGDYLDIAIT” here?
Answer: failed

Question: Which protein production does the source give for “DCYKNFVAKKCAGCKNPITGFGKGSSVVAYEGQSWHDYCFHCKKCSVNLANKRFVFHQEQVYCPDCAKKL” here?
Answer: not failed

Question: With “DDAGKRHVYVKEIATGTVKRAIEEKDELIKGYGWINDERLFFVMDKGGNENYHLFASNIDGSNTRDLTPFDGVKASILNMLKEQKDYMIISMNKNNPQIFEPYKLNVVTGELTQLYENKDAANPIQGYEFDKDGELRGYSRLVNGIESELYYKDLATGEFRLLKKTHWDDTFGVIAFNYASKNKDEAYVLTNLDSDKTRIVLYDLKQNKIIREIFANEDYDVSGLHLSRKRNYEIDLMAYEGEKSVVVPVSATYKELHKLMEKEFKGKEFSVVDYDDDETILLIAVQSDKLYGTYYQFDTRTKKFTLLYDLMPQLKEEDMAEMRPIKFKSRDGLTIHGYITLPKAALEGKKVPLIVNPHGGPQGIRDSWGFNPETQLFASRGYATLQVNFRISGGYGKEFLRAGFKQIGRKAMDDVEDGVRYAISQGWVDPDRIAIYGASHGGYATLMGLVKTPDLYACGVDYVGVSNIYTFFDSFPEYWKPFKEMVKEIWYDLDNPEEAAIAKEVSPFFQIDKINKPLFVVQGANDPRVNINESDQIVTALRARGFEVPYMVKYNEGHGFHREENSMELYRAMLGFFAKHLK” as the sequence, how does the protein production read?
Answer: failed

Question: For “DDRQEEKMIKENVYFDGNVKSLGFSQQDGESTVGVMAPGQYTFGTGAPERMTVVKGALTIKRVTDADWVTFTAGEAFEVAGNSSFDLQVEVATAYLCEFL”, which protein production is on record?
Answer: failed

Question: For “DEIFCRVYMPDHSYVTIRSRLSASVQDILGSVTEKLQYSEEPAGREDSLILVAVSSSGEKVLLQPTEDCVFTALGINSHLFACTRDSYEALVPLPEEIQVSPGDTEI”, which protein production is on record?
Answer: not failed

Question: With “DFLDVQKETPRIRIAIDRVGVKNIKFPLKIHDDFAFLTLNLFVDVPADRKGADMSRAVESIQKVINAGSYGERIGDIGIAICDEALSRFNYSEKAQCEVNIQYYRRSGERYLEYRMYVETAKDRKQIMKNEIGISYVTMTACPCAMETTRALISMDNPDISDAISAIPTITHNQRNVTKLTVDNRSKMITVWDLADVMERVQGKPLDSLLKRVEEGRLVYSAHRNPKFVEDVVREIAYEAARVLGVPDEATIKVSSESDESIHPHNAYAEIDT” as the sequence, how does the protein production read?
Answer: failed

Question: With “DGKVTKVFSSPLMARVQDLSSCAFPAPRISAEKTAAHEVDKDTITYTITVRNSGNLEATGTKFTDNLPGSYVPNSAKLNG” as the sequence, how does the protein production read?
Answer: failed
